Among the data in the supplement of paper PMC12042874 are amyloid nucleation score values, retold here.

± gives the uncertainty stated by the source.

This series is described as follows: amyloid nucleation score (Sup35N fusion, yeast selection) (log enrichment); library NNK1; higher = more nucleation; inactive = no reads after selection. In outline:
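The nucleation score is the DiMSum log enrichment of output over input reads, centred on the mode score of non-aggregating sequences. Only sequences with 100 or more input reads were scored, using Illumina sequencing of input and output plasmid inserts. Psi-negative yeast expressing Sup35N fused to peptides of 20 random codons were induced 24 hours with 100 μM copper sulfate and grown 7 days at 30°C on medium lacking adenine and uracil.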

In turn, NHGWVLNSNFYIPRKYSLVR returned an amyloid nucleation score of -1.25 ± 0.48.

In the case of EPARK, the amyloid nucleation score entry was “inactive”.

Substance CYRLWHGCKMGIPVQYLYGS came in with an amyloid nucleation score of -0.113 ± 0.36.

SRSSCQVMVSRDAADVLHRI: the amyloid nucleation score is 0.423 ± 0.58.

In turn, FNVGLPLAGIISTKTD returned an amyloid nucleation score of -1.83 ± 2.7.

FMLERYFQ yielded an amyloid nucleation score of -0.157 ± 0.24.

IRVINYFVWSWTLTIIADFI gave an amyloid nucleation score of -1.25 ± 2.4.

LYRVSLLGRGGNSMMCDMWL: the amyloid nucleation score result is “inactive”.

Substance IAPSNFRGWMAHYKV came in with an amyloid nucleation score of 0.213 ± 0.57.

For FSSSTRSLNNPLL, the amyloid nucleation score was found to be 0.006 ± 0.44.

DLLYERTYRSVVISLRTLAG: the amyloid nucleation score was found to be 0.816 ± 0.92.

For MYRYLPNSTLLSRVLDTSSY, the amyloid nucleation score entry is “inactive”.

The substance LVKWGCQLSVEFVRFNTGFQ came in with an amyloid nucleation score of 1.74 ± 0.094.

VPIFVNKFVDYTSLSCMHCL displayed an amyloid nucleation score of 7.379 ± 0.06.

As for ASIYMLRFMDLT, the amyloid nucleation score is -0.244 ± 0.71.

Turning to ECSGVNLNTSYLPGVQEATM, the amyloid nucleation score is 0.715 ± 0.2.

As for NCFRLILFVLSDHRQWCFES, the amyloid nucleation score is -1.78 ± 1.7.

RINLVDLMWMRHWRMGNI gave an amyloid nucleation score of 1.41 ± 0.29.

As to SMGLYRDLRLKCFC, the amyloid nucleation score was 1.02 ± 0.47.

As to YIYRDTYLRTPKLGSHMYCL, the amyloid nucleation score entry was “inactive”.

Take YCQCVCFSAMYSKTSRLNMG: the amyloid nucleation score came out at 6.744 ± 0.066.

On to DFECILLGCFGLDLPVTGIR, for which the amyloid nucleation score worked out at 2.27 ± 0.16.

Regarding YDILNGQAHDCYETMVKGWG, the amyloid nucleation score was -0.372 ± 0.47.

VVSLGNSSDYCHWKLILPTV came in with an amyloid nucleation score of 0.151 ± 0.4.

Consider NFTIDKRNAMLCVGRLYRSF, for which the amyloid nucleation score is 1.05 ± 0.5.

Substance VSFYGGFGKK returned an amyloid nucleation score of -0.116 ± 0.64.

Turning to HSGTSCWVGIIDV, the amyloid nucleation score was -0.248 ± 0.28.

With EQHCNAMGVSRSGPWCDGEV, the amyloid nucleation score amounted to 0.051 ± 0.85.

With ICYVNVL, the amyloid nucleation score is -1.18 ± 1.7.

EFAYQV gave an amyloid nucleation score of -0.552 ± 1.5.

RCKGNGKNISCSPFQSREWY displayed an amyloid nucleation score of 0.026 ± 0.33.

On to CKGFK, for which the amyloid nucleation score entry is “inactive”.

Substance QTFTYKCFIHYFMRMWLVQI returned an amyloid nucleation score of -0.005 ± 0.75.

Regarding RGSVWATSCRIAKPIVFWGW, the amyloid nucleation score entry is “inactive”.

Turning to YFVSCLFILWPRQSSTRPFE, the amyloid nucleation score is 8.165 ± 0.077.

With TSSVEVNPERVITISGTVS, the amyloid nucleation score is -0.018 ± 0.17.

The substance YYISLFTEDMSVRRVNQTCF came in with an amyloid nucleation score of -2.03 ± 0.96.

SQLVHERNSVGFEIVWMNHL returned an amyloid nucleation score of -0.249 ± 1.7.

Consider DFIVS, for which the amyloid nucleation score was -0.198 ± 0.3.

Substance LYPKSFYTKYYEWYTSGLIF came in with an amyloid nucleation score of 0.236 ± 0.57.

As to TTLKGCSIY, the amyloid nucleation score came out at 0.934 ± 0.41.

As to QKDSTPISGWFSFYMSVPFK, the amyloid nucleation score entry is “inactive”.

CIVYFSCLMYHWILDC: the amyloid nucleation score was 0.422 ± 0.65.

Take SAMAWIPFTISPRFEFRTCN: the amyloid nucleation score amounted to 5.16 ± 0.061.

On to HHCHSSGL, for which the amyloid nucleation score is 0.981 ± 0.93.

As to ISCVICAMIILRWHV, the amyloid nucleation score was found to be 0.045 ± 0.9.

In turn, TYPYRPLHSPFTNRFLSPNG had an amyloid nucleation score of -0.926 ± 0.73.

Regarding YWAIVW, the amyloid nucleation score is -0.128 ± 0.39.

The substance AWILRWKEIPMEYSLSS showed an amyloid nucleation score of 0.202 ± 0.56.

In the case of GWYSFLPSRNYFK, the amyloid nucleation score came to 4.92 ± 0.072.

TSRFSFCGS yielded an amyloid nucleation score of 1.85 ± 0.14.

SRFNPSQRMHSNSGKGGVSF: the amyloid nucleation score result is “inactive”.

The substance ICNSLMEDDMGASEVMC yielded an amyloid nucleation score of 0.734 ± 0.57.

Regarding SPRRLGAVMVSRRVGVGKGW, the amyloid nucleation score was 0.402 ± 1.4.

KVGLDIWGASGTN had an amyloid nucleation score of 0.525 ± 0.48.

As to LCNLGMLRLSGMENRINRVG, the amyloid nucleation score is 1.29 ± 0.6.

As for AACGWHRLICNKFSQFTRGP, the amyloid nucleation score is -0.021 ± 0.75.

KFRSEGWIGCESVIKW showed an amyloid nucleation score of 4.72 ± 0.078.

Turning to LMRRGGCVYVGFFWELVCFQ, the amyloid nucleation score was -0.524 ± 0.83.

Substance MRISFAITCTVTN displayed an amyloid nucleation score of 0.248 ± 0.28.

Turning to RWESKRRRRGRYGFWSVSVR, the amyloid nucleation score stood at 0.129 ± 0.35.

Substance SHVVCVCLRDLPRIFVFVEK showed an amyloid nucleation score of 6.63 ± 0.07.

For PAHKLILFPPCCVGVWYSER, the amyloid nucleation score result was “inactive”.

In the case of FTMFFPMGSVC, the amyloid nucleation score was 0.292 ± 0.64.

In the case of SDDRLATCTFCLYSRIKQVK, the amyloid nucleation score is -0.651 ± 1.7.

Substance LDLINRMGNVGMLIMDCYKI gave an amyloid nucleation score of 0.159 ± 0.43.

RGEVHSIWTPPLHKGQEMGI displayed an amyloid nucleation score of 0.048 ± 0.78.

In turn, VFLFNTAYESKNPMSKLKVC showed an amyloid nucleation score of -1.24 ± 0.5.

With LTLVNASSSRYEMSLFFQSI, the amyloid nucleation score worked out at 2.53 ± 0.12.

In the case of YSSGKELTGLLDKKFIIGLD, the amyloid nucleation score was -0.186 ± 0.39.

CIFFVNTGHGYLWQDYAHSN displayed an amyloid nucleation score of 3.58 ± 0.15.

For the substance ANRNDCTQFTDSK, the amyloid nucleation score was -0.41 ± 0.27.

Consider IGPLYRFCMLNMRFGAGSLN, for which the amyloid nucleation score is 0.428 ± 0.84.

GFTSHFRYLWHILIRYWSNP came in with an amyloid nucleation score of 0.442 ± 0.39.

The substance DLNDMAIRV returned an amyloid nucleation score of 0.004 ± 0.31.

FCICNRKRHNPSPEKKNA came in with an amyloid nucleation score of -1.36 ± 0.91.

Regarding QWCVKESAFIYEYRLSGDCL, the amyloid nucleation score was -0.584 ± 0.74.

For RSVMVMLPS, the amyloid nucleation score was determined as 0.022 ± 0.37.

Substance YLDSILYMGLTDLVWQVGTT returned an amyloid nucleation score of -0.334 ± 0.43.

In turn, LVGSKSGVTRQRMALRWGGF gave an amyloid nucleation score of -0.285 ± 1.4.

As to VYKRFSTTMCLMTSSEWVDS, the amyloid nucleation score came to 2.45 ± 0.068.

The substance TAVDLWYGGVGGLALNGVVS showed an amyloid nucleation score of 0.594 ± 0.62.

FGQNFEGIWPFVVKNRRLGQ came in with an amyloid nucleation score of -1.12 ± 0.59.

In the case of TPGVKPYYWIRLTEIVATHS, the amyloid nucleation score worked out at 0.52 ± 1.2.

For the substance AYSSARHFFTLTFKEIRFGR, the amyloid nucleation score was 0.141 ± 1.4.

With LPVLSGWTNTAA, the amyloid nucleation score is -0.73 ± 0.59.

The substance ISALGF registered an amyloid nucleation score of 1.98 ± 0.72.

Substance SNFVALYDRYNCFSVCIYCG displayed an amyloid nucleation score of 5.78 ± 0.063.

On to KEGLRDGLLCRYQTCAG, for which the amyloid nucleation score was 0.091 ± 0.48.

VAYSVI yielded an amyloid nucleation score of 1.02 ± 0.66.

Consider TFGLRFVYMAHLVVWCADHR, for which the amyloid nucleation score turned out to be 0.036 ± 0.33.

SKEFPHMYFFGVRFVVVTKV yielded an amyloid nucleation score of -0.246 ± 0.45.

In the case of ASFVSLVSAPESFNGFAVQN, the amyloid nucleation score is -0.006 ± 0.48.

As for LAVEWWTNVVYVFYAYFANR, the amyloid nucleation score came out at 0.001 ± 0.25.

WLVVFVDSVYARRWCELKFL gave an amyloid nucleation score of 0.39 ± 0.36.

Regarding YNVSHLIRV, the amyloid nucleation score is -0.959 ± 0.26.

On to EACNNQNFCRTSNGESSTTV, for which the amyloid nucleation score was found to be 0.324 ± 0.75.

Take RMSNDITNFSFTIVTM: the amyloid nucleation score stood at 3.86 ± 0.08.

For IRSEDKITFPGLCKSRLELV, the amyloid nucleation score worked out at 0.845 ± 0.67.

With PGFPNLVTSRTLIVCQL, the amyloid nucleation score result is “inactive”.

MISGCLRVLMRAGVKHYVFM: the amyloid nucleation score came out at 0.369 ± 0.93.

The substance RRSYDSLFVVVRRINTCSSP showed an amyloid nucleation score of -0.852 ± 1.1.
